The values below are quoted from earlier work in article PMC7825312.

The data set addresses Cys38 (UniProt position 39, SFLKECPSGRI). In words: UV-vis.

Regarding Recoverin (Bos taurus), the pKa (commonly the pH at which an ionisable group is half protonated) is recorded as 7.6.
